The values that follow come from patent US20090053138.

pKd: −log10 of the molar value.

As a reminder, the pKd is the negative decadic logarithm of the Kd, by convention in mol/L. The Kd is a measure of binding affinity in units of concentration. High values mean weaker binding, low ones tighter binding.

Data set [1] deals with T1, VEGF (Homo sapiens ?), P15692-4.
T1 sequence: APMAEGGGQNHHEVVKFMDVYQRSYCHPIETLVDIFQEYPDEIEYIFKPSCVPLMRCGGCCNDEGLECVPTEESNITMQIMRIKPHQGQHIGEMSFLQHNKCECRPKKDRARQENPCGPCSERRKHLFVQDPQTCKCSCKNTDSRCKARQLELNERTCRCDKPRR
Description: FP filter. To be noted: nitrocellulose dot blot.

For data set [2], the target named is PDGF-AB (Homo sapiens) (UniProt P04085+P01127). Description: competition. To be noted: DNA with s1 fU6 fC8 mG9; s2 mG5 mG7 fU10 fC11 mA12; s3 fC5 fC6 fU7 mG8 (f=2'-F, m=2'-OMe); HEG spacers between segments; 3'-inverted dT; dot blot; p348 prints uM, legend prints pM.
The target of data set [3] is PDGF-BB (Rattus norvegicus) (UniProt Q05028). Description: competition. To be noted: DNA with s1 fU6 fC8 mG9; s2 mG5 mG7 fU10 fC11 mA12; s3 fC5 fC6 fU7 mG8 (f=2'-F, m=2'-OMe); HEG spacers between segments; 3'-inverted dT; equal affinity to ….
Data set [4] deals with PDGF-AA (Homo sapiens), P04085-2. Description: competition. To be noted: PEG-conjugated ARC513 (PEG size per image, not given); 2'-OMe as ARC513; PEG spacers; figure legend states no binding to PDGF-AA.

Chain of PDGF-AB (Homo sapiens) (P01127 82-190, chain 2 of 2, other chains not shown): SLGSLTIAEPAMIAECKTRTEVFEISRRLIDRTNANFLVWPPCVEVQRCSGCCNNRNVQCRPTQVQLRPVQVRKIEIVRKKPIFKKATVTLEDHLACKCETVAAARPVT
Chain of PDGF-BB (Rattus norvegicus) (Q05028 74-182): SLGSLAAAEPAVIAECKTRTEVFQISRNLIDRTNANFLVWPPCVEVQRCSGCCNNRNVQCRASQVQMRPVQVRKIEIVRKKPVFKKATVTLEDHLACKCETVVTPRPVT

In data set [1] (all 2'-OMe), AUGCAGUUUGAGAAGUCGCGCAU [ARC245] had a pKd of 8.70.
For “CAGGCTACGAUGCAGUUUGAGAAGUCGCGCAUCGTAGAGCATCAGAAATGATCCTG [TK.131.012.A]”, the pKd in data set [1] (ARC126 part deoxy, ARC245 part 2'-OMe, dGdAdAdA linker) is 8.00.
“CAGGCTACGUGCAGUUUGAGAAGUCGCGCACGTAGAGCATCAGAAATGATCCTG [TK.131.012.B]” showed a pKd in data set [1] (ARC126 part deoxy, ARC245 part 2'-OMe (first mA-mU pair removed), dGdAdAdA linker) of 8.30.
CAGGCUACGCGTAGAGCAUCATGATCCUG [ARC126]: in data set [2], the Kd was found to be 0.0001 µM. Moreover, the pKd in data set [3] was 10.00.
“CCCAGGCTACGCGTAGAGCAUCATGATCCTGGG [ARC594 (AX102)]”: the pKd in data set [4] was 8.59.
